Reference: patent publication US20260167721A1 (ABLEXIS, published 2026)
Blank lines part the entries; values can stand above or below the binder they belong to.

Legend:
recombinant CD3 proteins [1] = biological target: T1, recombinant CD3 proteins (UniProt P07766 23-126); assay: Octet BLI, recombinant CD3; Full R^2 0.9986
T1 construct: elsewhere it uses human CD3 E/D and E/G heterodimers

recombinant CD3 proteins [2] = biological target: T1, recombinant CD3 proteins; assay: Octet BLI, recombinant CD3; Full R^2 0.9872
recombinant CD3 proteins [3] = biological target: T1, recombinant CD3 proteins; assay: Octet BLI, recombinant CD3; Full R^2 0.9823
recombinant CD3 proteins [4] = biological target: T1, recombinant CD3 proteins; assay: Octet BLI, recombinant CD3; Full R^2 0.966
recombinant CD3 proteins [5] = biological target: T1, recombinant CD3 proteins; assay: Octet BLI, recombinant CD3; Full R^2 0.9966

T1 sequence (P07766 23-126): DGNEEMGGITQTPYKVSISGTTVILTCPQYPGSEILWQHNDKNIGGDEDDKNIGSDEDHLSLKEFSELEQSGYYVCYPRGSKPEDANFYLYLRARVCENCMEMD

B1: CD3 × CD33-BspAb92 (bispecific antibody)
chain 1: not shown
chain 2: EVQLVQSGAEVKKPGSSVKVSCKASGYTITDSNIHWVRQAPGQSLEWIGYIYPYNGGTDYNQKFKNRATLTVDNPTNTAYMELSSLRSEDTAFYYCVNGNPWLAYWGQGTLVTVSSASTKGPSVFPLAPSSKSTSGGTAALGCLVKDYFPEPVTVSWNSGALTSGVHTFPAVLQSSGLYSLSSVVTVPSSSLGTQTYICNVNHKPSNTKVDKRVEPKSCDKTHTCPPCPAPEFEGGPSVFLFPPKPKDTLMISRTPEVTCVVVDVSHEDPEVKFNWYVDGVEVHNAKTKPREEQYNSTYRVVSVLTVLHQDWLNGKEYKCKVSNKALPASIEKTISKAKGQPREPQVCTLPPSREEMTKNQVSLSCAVKGFYPSDIAVEWESNGQPENNYKTTPPVLDSDGSFFLVSKLTVDKSRWQQGNVFSCSVMHEALHNRFTQKSLSLSPGK
chain 3: DIQLTQSPSTLSASVGDRVTITCRASESLDNYGIRFLTWFQQKPGKAPKLLMYAASNQGSGVPSRFSGSGSGTEFTLTISSLQPDDFATYYCQQTKEVPWSFGQGTKVEVKRTVAAPSVFIFPPSDEQLKSGTASVVCLLNNFYPREAKVQWKVDNALQSGNSQESVTEQDSKDSTYSLSSTLTLSKADYEKHKVYACEVTHQGLSSPVTKSFNRGEC
- Kd (recombinant CD3 proteins [1]): 0.0438 µM
- koff (recombinant CD3 proteins [1]): 0.00051 s⁻¹
- kon (recombinant CD3 proteins [1]): 11600 M⁻¹ s⁻¹

B4: CD3 × CD33-BspAb95 (bispecific antibody)
chain 1: NFMLTQPHSVSESPGKTVTISCTRSSGSIASNYVQWYQQRPGSSPTTVIYEDNQRSSGVPDRFSGSIDSSSNSASLTISGLKTEDEADYYCQSYDRSNRVFGCGTKLTVLGGGGSGGGGSGGGGSGGGGSEVQLVESGGGLVKPGGSLRLSCSASGFTFSTYTMNWVRQAPGKCLEWVSSISKSSSYIYYTDSVKGRFTISRDNAKNSLYLQMNSLRAEDTAVYYCARERRTLAFDIWGQGTMVTVSSDKTHTCPPCPAPEFEGGPSVFLFPPKPKDTLMISRTPEVTCVVVDVSHEDPEVKFNWYVDGVEVHNAKTKPREEQYNSTYRVVSVLTVLHQDWLNGKEYKCKVSNKALPASIEKTISKAKGQPREPQVYTLPPCREEMTKNQVSLWCLVKGFYPSDIAVEWESNGQPENNYKTTPPVLDSDGSFFLYSKLTVDKSRWQQGNVFSCSVMHEALHNHYTQKSLSLSPGK
chain 2: EVQLVQSGAEVKKPGSSVKVSCKASGYTITDSNIHWVRQAPGQSLEWIGYIYPYNGGTDYNQKFKNRATLTVDNPTNTAYMELSSLRSEDTAFYYCVNGNPWLAYWGQGTLVTVSSASTKGPSVFPLAPSSKSTSGGTAALGCLVKDYFPEPVTVSWNSGALTSGVHTFPAVLQSSGLYSLSSVVTVPSSSLGTQTYICNVNHKPSNTKVDKRVEPKSCDKTHTCPPCPAPEFEGGPSVFLFPPKPKDTLMISRTPEVTCVVVDVSHEDPEVKFNWYVDGVEVHNAKTKPREEQYNSTYRVVSVLTVLHQDWLNGKEYKCKVSNKALPASIEKTISKAKGQPREPQVCTLPPSREEMTKNQVSLSCAVKGFYPSDIAVEWESNGQPENNYKTTPPVLDSDGSFFLVSKLTVDKSRWQQGNVFSCSVMHEALHNRFTQKSLSLSPGK
chain 3: DIQLTQSPSTLSASVGDRVTITCRASESLDNYGIRFLTWFQQKPGKAPKLLMYAASNQGSGVPSRFSGSGSGTEFTLTISSLQPDDFATYYCQQTKEVPWSFGQGTKVEVKRTVAAPSVFIFPPSDEQLKSGTASVVCLLNNFYPREAKVQWKVDNALQSGNSQESVTEQDSKDSTYSLSSTLTLSKADYEKHKVYACEVTHQGLSSPVTKSFNRGEC
- Kd (recombinant CD3 proteins [4]): 0.00844 µM
- koff (recombinant CD3 proteins [4]): 0.00457 s⁻¹
- kon (recombinant CD3 proteins [4]): 542000 M⁻¹ s⁻¹

Second part, the binder after the results:

- Kd (recombinant CD3 proteins [2]): 0.0148 µM
- koff (recombinant CD3 proteins [2]): 0.00516 s⁻¹
- kon (recombinant CD3 proteins [2]): 349000 M⁻¹ s⁻¹
B2: CD3 × CD33-BspAb93 (bispecific antibody)
chain 1: NFMLTQPHSVSESPGKTVTISCTRSSGSIASKYVQWYQQRPGSSPTTVIYEDNQRPSGVPDRFSGSIDSSSNSASLTISGLKTEDEADYYCQSYYSNNRVFGCGTKLTVLGGGGSGGGGSGGGGSGGGGSEVQLVESGGGLVQPGGSLRLSCAASGFTFSRYSMNWVRQAPGKCLEWVSYISRSSTTIYYADSVKGRFTISRDNAKNSLYLQMNSLRDEDAAVYYCARERWELLYFDYWGQGTLVTVSSDKTHTCPPCPAPEFEGGPSVFLFPPKPKDTLMISRTPEVTCVVVDVSHEDPEVKFNWYVDGVEVHNAKTKPREEQYNSTYRVVSVLTVLHQDWLNGKEYKCKVSNKALPASIEKTISKAKGQPREPQVYTLPPCREEMTKNQVSLWCLVKGFYPSDIAVEWESNGQPENNYKTTPPVLDSDGSFFLYSKLTVDKSRWQQGNVFSCSVMHEALHNHYTQKSLSLSPGK
chain 2: EVQLVQSGAEVKKPGSSVKVSCKASGYTITDSNIHWVRQAPGQSLEWIGYIYPYNGGTDYNQKFKNRATLTVDNPTNTAYMELSSLRSEDTAFYYCVNGNPWLAYWGQGTLVTVSSASTKGPSVFPLAPSSKSTSGGTAALGCLVKDYFPEPVTVSWNSGALTSGVHTFPAVLQSSGLYSLSSVVTVPSSSLGTQTYICNVNHKPSNTKVDKRVEPKSCDKTHTCPPCPAPEFEGGPSVFLFPPKPKDTLMISRTPEVTCVVVDVSHEDPEVKFNWYVDGVEVHNAKTKPREEQYNSTYRVVSVLTVLHQDWLNGKEYKCKVSNKALPASIEKTISKAKGQPREPQVCTLPPSREEMTKNQVSLSCAVKGFYPSDIAVEWESNGQPENNYKTTPPVLDSDGSFFLVSKLTVDKSRWQQGNVFSCSVMHEALHNRFTQKSLSLSPGK
chain 3: DIQLTQSPSTLSASVGDRVTITCRASESLDNYGIRFLTWFQQKPGKAPKLLMYAASNQGSGVPSRFSGSGSGTEFTLTISSLQPDDFATYYCQQTKEVPWSFGQGTKVEVKRTVAAPSVFIFPPSDEQLKSGTASVVCLLNNFYPREAKVQWKVDNALQSGNSQESVTEQDSKDSTYSLSSTLTLSKADYEKHKVYACEVTHQGLSSPVTKSFNRGEC

- Kd (recombinant CD3 proteins [3]): 0.573 µM
- koff (recombinant CD3 proteins [3]): 0.21 s⁻¹
- kon (recombinant CD3 proteins [3]): 366000 M⁻¹ s⁻¹
B3: CD3 × CD33-BspAb96 (bispecific antibody)
chain 1: SYELTQPPSVSVSPGQTARITCSGDALPKKYAYWYQQKSGQAPVLVIYEDSKRPSGIPERFSGSSSGTMATLTISGAQVEDEADYYCYSTDSSGNHSWVFGCGTKLTVLGGGGSGGGGSGGGGSGGGGSEVQLVESGGGLVKPGGSLRLSCAASGFTFSSYSMNWVRQAPGKCLEWVSSVNSRGSYIYYADSVKGRFTISRDNAKDSLYLQMNSLRADDTAVYYCARDRRELLLDYWGQGTLVTVSSDKTHTCPPCPAPEFEGGPSVFLFPPKPKDTLMISRTPEVTCVVVDVSHEDPEVKFNWYVDGVEVHNAKTKPREEQYNSTYRVVSVLTVLHQDWLNGKEYKCKVSNKALPASIEKTISKAKGQPREPQVYTLPPCREEMTKNQVSLWCLVKGFYPSDIAVEWESNGQPENNYKTTPPVLDSDGSFFLYSKLTVDKSRWQQGNVFSCSVMHEALHNHYTQKSLSLSPGK
chain 2: EVQLVQSGAEVKKPGSSVKVSCKASGYTITDSNIHWVRQAPGQSLEWIGYIYPYNGGTDYNQKFKNRATLTVDNPTNTAYMELSSLRSEDTAFYYCVNGNPWLAYWGQGTLVTVSSASTKGPSVFPLAPSSKSTSGGTAALGCLVKDYFPEPVTVSWNSGALTSGVHTFPAVLQSSGLYSLSSVVTVPSSSLGTQTYICNVNHKPSNTKVDKRVEPKSCDKTHTCPPCPAPEFEGGPSVFLFPPKPKDTLMISRTPEVTCVVVDVSHEDPEVKFNWYVDGVEVHNAKTKPREEQYNSTYRVVSVLTVLHQDWLNGKEYKCKVSNKALPASIEKTISKAKGQPREPQVCTLPPSREEMTKNQVSLSCAVKGFYPSDIAVEWESNGQPENNYKTTPPVLDSDGSFFLVSKLTVDKSRWQQGNVFSCSVMHEALHNRFTQKSLSLSPGK
chain 3: DIQLTQSPSTLSASVGDRVTITCRASESLDNYGIRFLTWFQQKPGKAPKLLMYAASNQGSGVPSRFSGSGSGTEFTLTISSLQPDDFATYYCQQTKEVPWSFGQGTKVEVKRTVAAPSVFIFPPSDEQLKSGTASVVCLLNNFYPREAKVQWKVDNALQSGNSQESVTEQDSKDSTYSLSSTLTLSKADYEKHKVYACEVTHQGLSSPVTKSFNRGEC

- Kd (recombinant CD3 proteins [5]): 0.645 µM
- koff (recombinant CD3 proteins [5]): 0.0738 s⁻¹
- kon (recombinant CD3 proteins [5]): 115000 M⁻¹ s⁻¹
B5: CD3 × CD33-BspAb94 (bispecific antibody)
chain 1: NFMLTQPHSVSESPGKTVTISCTRSSGSIASNYVQWYQQRPGSSPTTVIYEDNQRPSGVPDRFSGSIDSSSNSASLTISGLKTEDEADYYCQSYDSSNRVFGCGTKLTVLGGGGSGGGGSGGGGSGGGGSEVQLVESGGGLVKPGGSLRLSCAASGFTFSSYTMNWVRQAPGKCLEWVSSITTSSSYIYYADSVKGRFTISRDNAKNSLYLQMNSLRAEDTAVYYCARVTFDAFDIWGQGTMVTVSSDKTHTCPPCPAPEFEGGPSVFLFPPKPKDTLMISRTPEVTCVVVDVSHEDPEVKFNWYVDGVEVHNAKTKPREEQYNSTYRVVSVLTVLHQDWLNGKEYKCKVSNKALPASIEKTISKAKGQPREPQVYTLPPCREEMTKNQVSLWCLVKGFYPSDIAVEWESNGQPENNYKTTPPVLDSDGSFFLYSKLTVDKSRWQQGNVFSCSVMHEALHNHYTQKSLSLSPGK
chain 2: EVQLVQSGAEVKKPGSSVKVSCKASGYTITDSNIHWVRQAPGQSLEWIGYIYPYNGGTDYNQKFKNRATLTVDNPTNTAYMELSSLRSEDTAFYYCVNGNPWLAYWGQGTLVTVSSASTKGPSVFPLAPSSKSTSGGTAALGCLVKDYFPEPVTVSWNSGALTSGVHTFPAVLQSSGLYSLSSVVTVPSSSLGTQTYICNVNHKPSNTKVDKRVEPKSCDKTHTCPPCPAPEFEGGPSVFLFPPKPKDTLMISRTPEVTCVVVDVSHEDPEVKFNWYVDGVEVHNAKTKPREEQYNSTYRVVSVLTVLHQDWLNGKEYKCKVSNKALPASIEKTISKAKGQPREPQVCTLPPSREEMTKNQVSLSCAVKGFYPSDIAVEWESNGQPENNYKTTPPVLDSDGSFFLVSKLTVDKSRWQQGNVFSCSVMHEALHNRFTQKSLSLSPGK
chain 3: DIQLTQSPSTLSASVGDRVTITCRASESLDNYGIRFLTWFQQKPGKAPKLLMYAASNQGSGVPSRFSGSGSGTEFTLTISSLQPDDFATYYCQQTKEVPWSFGQGTKVEVKRTVAAPSVFIFPPSDEQLKSGTASVVCLLNNFYPREAKVQWKVDNALQSGNSQESVTEQDSKDSTYSLSSTLTLSKADYEKHKVYACEVTHQGLSSPVTKSFNRGEC
